One may read the stoichiometry N as the number of molecules, sites or subunits per partner or assembly.

The target in experiment [1] is 9His-rsLAAO1 (L-amino acid oxidase from Rhizoctonia solani with nine histidine residues as affinity tag) (Rhizoctonia solani). The experiment can be described thus: SEC; native 9His-rsLAAO1 on calibrated Superdex 200 Increase 10/300 GL, 50 mM NaH2PO4 pH 8.2, 300 mM NaCl, 0.3 mL/min; without SDS. (In general: SEC sorts molecules by how far they enter the pores of the column.)

For experiment [2] the target is unchanged. The experiment can be described thus: SEC; 9His-rsLAAO1 activated with 1.5 mM SDS, added to the protein solution before chromatography; Superdex 200 Increase 10/300 GL, 50 mM NaH2PO4 pH 8.2, 300 mM NaCl.

For “9His-rsLAAO1 (L-amino acid oxidase from Rhizoctonia solani with nine histidine residues as affinity tag) (enzyme)”, the stoichiometry N in experiment [1] and in experiment [2] was 2 throughout.

Source of the values: article PMC6149798.
